Measurements: patent US20230174642A1, “AFFINITY-MATURATED ANTI-ASIC1a ANTIBODIES” (SHANGHAITECH UNIVERSITY, priority 2019, published 2023)

Experiments:
[1] = molecular target: T1, rat ASIC1a-eYFP (rASIC1a-eYFP) on transiently transfected CHO-K1 cells (rat, UniProt P55926 1-526); assay: FACS on transiently transfected CHO-K1 cells
T1 construct: whole, on cells; not shown: eYFP fusion partner
T1 sequence (looked up): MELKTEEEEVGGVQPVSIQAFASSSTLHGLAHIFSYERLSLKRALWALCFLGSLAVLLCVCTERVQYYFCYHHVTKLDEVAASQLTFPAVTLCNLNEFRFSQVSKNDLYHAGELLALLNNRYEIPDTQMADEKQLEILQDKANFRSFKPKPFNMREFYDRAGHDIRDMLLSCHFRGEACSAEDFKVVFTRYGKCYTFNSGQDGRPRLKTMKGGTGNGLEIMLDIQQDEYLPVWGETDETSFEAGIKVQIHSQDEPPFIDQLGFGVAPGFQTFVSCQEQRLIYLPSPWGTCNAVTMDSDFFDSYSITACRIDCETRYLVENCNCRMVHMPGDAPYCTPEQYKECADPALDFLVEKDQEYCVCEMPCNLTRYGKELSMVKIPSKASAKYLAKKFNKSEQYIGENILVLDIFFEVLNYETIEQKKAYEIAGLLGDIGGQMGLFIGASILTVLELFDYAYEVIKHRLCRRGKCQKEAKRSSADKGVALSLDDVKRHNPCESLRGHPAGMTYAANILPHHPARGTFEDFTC
Protocol: (§1) To investigate the species selectivity of ASC06-IgG1 affinity-matured antibodies, plasmids encoding fusion proteins of eYFP with […] homologs of ASIC1a were constructed. These plasmids included those encoding human ASIC1a (hASIC1a-eYFP), mouse ASIC1a (mASIC1a-eYFP), and rat ASIC1a (rASIC1a-eYFP). CHO-K1 cells were transiently transfected with the ASIC1a-eYFP plasmids, and a fluorescence activated cell sorting (FACS)-based binding assay was carried out to determine binding to the homologs or isoforms of ASIC1a expressed on the cell surface. An isotype control was used as a negative control for binding (NC). ASC06-IgG1 was used as a positive control. Summarily, the CHO-K1 cells expressing the ASIC1a-eYFP (green) homologs were stained with the indicated antibody (red) and subjected to FACS.
(§2) To examine the ASIC isotype selectivity of ASC06-IgG1 affinity-matured antibodies, plasmids encoding fusion proteins of eYFP with isoforms of […] were constructed. These plasmids included those encoding human ASIC1b (hASIC1b-eYFP), human ASIC2a (hASIC2a-eYFP), and human ASIC3a (hASIC3a-eYFP). CHO-K1 cells were transiently transfected with these plasmids and used in a FACS-based binding assay disclosed herein. Binding of ASC06-IgG1 to CHO-K1 cells expressing human ASIC1a-eYFP (hASIC1a-eYFP) was used as a positive control (data not shown and FIG. 2), and an isotype control was used as a negative control for binding (NC).

[2] = molecular target: T2, human ASIC2a-eYFP (hASIC2a-eYFP) on transiently transfected CHO-K1 cells (human, UniProt Q16515 1-512); assay: FACS on transiently transfected CHO-K1 cells
T2 construct: whole, on cells; not shown: eYFP fusion partner
T2 sequence (looked up): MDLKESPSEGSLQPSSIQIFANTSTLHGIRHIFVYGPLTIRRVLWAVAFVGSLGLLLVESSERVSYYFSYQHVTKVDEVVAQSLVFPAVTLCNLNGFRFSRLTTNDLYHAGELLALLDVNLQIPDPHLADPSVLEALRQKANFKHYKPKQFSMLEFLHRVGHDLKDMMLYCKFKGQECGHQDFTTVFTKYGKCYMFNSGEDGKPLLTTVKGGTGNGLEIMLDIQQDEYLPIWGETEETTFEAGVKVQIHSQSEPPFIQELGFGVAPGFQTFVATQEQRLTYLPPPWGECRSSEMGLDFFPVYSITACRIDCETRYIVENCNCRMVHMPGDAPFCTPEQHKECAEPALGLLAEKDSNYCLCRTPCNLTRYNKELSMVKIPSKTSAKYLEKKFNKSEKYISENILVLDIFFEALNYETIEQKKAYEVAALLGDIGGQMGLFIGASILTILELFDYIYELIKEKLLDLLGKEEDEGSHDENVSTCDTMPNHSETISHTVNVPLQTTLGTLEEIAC
Protocol: as §1, §2

[3] = molecular target: T3, human ASIC3a-eYFP (hASIC3a-eYFP) on transiently transfected CHO-K1 cells (human, UniProt Q9UHC3 1-531); assay: FACS on transiently transfected CHO-K1 cells
T3 construct: whole, on cells; not shown: eYFP fusion partner
T3 sequence (looked up): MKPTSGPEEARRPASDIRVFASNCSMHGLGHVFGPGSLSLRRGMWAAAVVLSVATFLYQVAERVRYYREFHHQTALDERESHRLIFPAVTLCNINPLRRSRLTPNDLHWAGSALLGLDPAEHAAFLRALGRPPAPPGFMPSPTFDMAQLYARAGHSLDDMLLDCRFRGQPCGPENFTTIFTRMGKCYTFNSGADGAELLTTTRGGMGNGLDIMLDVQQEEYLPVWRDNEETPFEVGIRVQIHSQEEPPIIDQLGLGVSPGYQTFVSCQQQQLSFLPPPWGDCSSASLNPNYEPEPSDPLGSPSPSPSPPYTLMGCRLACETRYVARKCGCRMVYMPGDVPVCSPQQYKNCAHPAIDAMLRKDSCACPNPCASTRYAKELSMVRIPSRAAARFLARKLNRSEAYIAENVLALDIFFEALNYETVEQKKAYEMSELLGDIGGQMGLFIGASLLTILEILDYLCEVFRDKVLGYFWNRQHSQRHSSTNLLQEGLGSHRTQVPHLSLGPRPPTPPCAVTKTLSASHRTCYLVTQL
Protocol: as §1, §2

[4] = molecular target: T4, mouse ASIC1a (mASIC1a-eYFP) (Mus musculus, UniProt Q6NXK8); assay: FACS-based binding assay, transiently transfected CHO-K1 cells (species selectivity); details: double positive population
T4 construct: expressed in transfected cells; host or cells: CHO-K1 (transient)
T4 sequence (Q6NXK8 1-526): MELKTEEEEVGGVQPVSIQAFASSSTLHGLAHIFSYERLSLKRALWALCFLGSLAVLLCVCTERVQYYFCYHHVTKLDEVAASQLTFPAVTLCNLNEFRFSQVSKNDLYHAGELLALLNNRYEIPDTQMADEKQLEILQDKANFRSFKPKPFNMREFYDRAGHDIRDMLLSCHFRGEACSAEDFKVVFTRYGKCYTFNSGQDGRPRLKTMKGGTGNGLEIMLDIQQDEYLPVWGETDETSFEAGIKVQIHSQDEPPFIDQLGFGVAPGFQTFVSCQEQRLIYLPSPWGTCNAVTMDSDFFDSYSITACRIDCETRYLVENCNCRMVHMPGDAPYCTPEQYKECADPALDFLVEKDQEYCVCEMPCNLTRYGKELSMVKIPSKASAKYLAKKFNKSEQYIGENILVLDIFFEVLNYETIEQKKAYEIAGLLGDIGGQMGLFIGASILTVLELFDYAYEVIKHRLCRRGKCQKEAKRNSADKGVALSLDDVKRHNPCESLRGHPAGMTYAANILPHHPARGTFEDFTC
Protocol: as §1

B1: ASC06-03-IgG1 (antibody, V domains shown)
VH: QVQLQQSGGGLVQPGGSLRLSCAASGFTFSSYAMSWVRQAPGKGLEWVSAISGSGGSTYYADSVKGRFTISRDNSKNTLYLQMNSLRAEDTAVYYCAKDSFYGRAKGSWGQGTLVTVSS
VL: QSALTQPASVSGSPGQSITISCTGTSSDVGAYNYVSWYQQQPGKAPKLMIYGVSNRPSGVSNRFSGSKSGNAASLTISGLQAEDEADYYCSSYTSSSTYVFGTGTKLTVLG
notes: Full length IgG1
B1: binds [1]; no binding [2]; no binding [3].

B2: ASC06-02-IgG1: affinity-matured ASC06 derivative, VH-CDR3 DSFFGRAKGS (SEQ ID NO: 13) (antibody, V domains shown)
VH: QVQLQQSGGGLVQPGGSLRLSCAASGFTFSSYAMSWVRQAPGKGLEWVSAISGSGGSTYYADSVKGRFTISRDNSKNTLYLQMNSLRAEDTAVYYCAKDSFFGRAKGSWGQGTLVTVSS
VL: QSALTQPASVSGSPGQSITISCTGTSSDVGAYNYVSWYQQQPGKAPKLMIYGVSNRPSGVSNRFSGSKSGNAASLTISGLQAEDEADYYCSSYTSSSTYVFGTGTKLTVLG
In the case of B2, the “binding to cells expressing mASIC1a-eYFP” value [4] is reported as “bound”.

B3: ASC06-04-IgG1: affinity-matured ASC06 derivative, VH-CDR3 DSFYGRAKGV (SEQ ID NO: 17) (antibody, V domains shown)
VH: QVQLQQSGGGLVQPGGSLRLSCAASGFTFSSYAMSWVRQAPGKGLEWVSAISGSGGSTYYADSVKGRFTISRDNSKNTLYLQMNSLRAEDTAVYYCAKDSFYGRAKGVWGQGTLVTVSS
VL: QSALTQPASVSGSPGQSITISCTGTSSDVGAYNYVSWYQQQPGKAPKLMIYGVSNRPSGVSNRFSGSKSGNAASLTISGLQAEDEADYYCSSYTSSSTYVFGTGTKLTVLG
With B3 the “binding to cells expressing mASIC1a-eYFP” value [4] was “bound”.

B4: ASC06-01-IgG1: affinity-matured ASC06 derivative, VH-CDR3 DSYFGYSKGD (SEQ ID NO: 11) (antibody, V domains shown)
VH: QVQLQQSGGGLVQPGGSLRLSCAASGFTFSSYAMSWVRQAPGKGLEWVSAISGSGGSTYYADSVKGRFTISRDNSKNTLYLQMNSLRAEDTAVYYCAKDSYFGYSKGDWGQGTLVTVSS
VL: QSALTQPASVSGSPGQSITISCTGTSSDVGAYNYVSWYQQQPGKAPKLMIYGVSNRPSGVSNRFSGSKSGNAASLTISGLQAEDEADYYCSSYTSSSTYVFGTGTKLTVLG
With B4 the “binding to cells expressing mASIC1a-eYFP” value [4] was “bound”.

B5: ASC06-03-IgG1: affinity-matured ASC06 derivative, VH-CDR3 DSFYGRAKGS (SEQ ID NO: 15) (antibody, V domains shown)
VH: QVQLQQSGGGLVQPGGSLRLSCAASGFTFSSYAMSWVRQAPGKGLEWVSAISGSGGSTYYADSVKGRFTISRDNSKNTLYLQMNSLRAEDTAVYYCAKDSFYGRAKGSWGQGTLVTVSS
VL: QSALTQPASVSGSPGQSITISCTGTSSDVGAYNYVSWYQQQPGKAPKLMIYGVSNRPSGVSNRFSGSKSGNAASLTISGLQAEDEADYYCSSYTSSSTYVFGTGTKLTVLG
For B5, the “binding to cells expressing mASIC1a-eYFP” value [4] was “bound”.

B6: ASC06-01-IgG1 (antibody, V domains shown)
VH: QVQLQQSGGGLVQPGGSLRLSCAASGFTFSSYAMSWVRQAPGKGLEWVSAISGSGGSTYYADSVKGRFTISRDNSKNTLYLQMNSLRAEDTAVYYCAKDSYFGYSKGDWGQGTLVTVSS
VL: QSALTQPASVSGSPGQSITISCTGTSSDVGAYNYVSWYQQQPGKAPKLMIYGVSNRPSGVSNRFSGSKSGNAASLTISGLQAEDEADYYCSSYTSSSTYVFGTGTKLTVLG
notes: Full length IgG1
B6: binds [1]; no binding [2]; no binding [3].

B7: ASC06-IgG1 (antibody, V domains shown)
VH: QVQLQQSGGGLVQPGGSLRLSCAASGFTFSSYAMSWVRQAPGKGLEWVSAISGSGGSTYYADSVKGRFTISRDNSKNTLYLQMNSLRAEDTAVYYCAKDSFYGYSKGDWGQGTLVTVSS
VL: QSALTQPASVSGSPGQSITISCTGTSSDVGAYNYVSWYQQQPGKAPKLMIYGVSNRPSGVSNRFSGSKSGNAASLTISGLQAEDEADYYCSSYTSSSTYVFGTGTKLTVLG
notes: Tested as full length IgG1; also called WT antibody ASC06-IgG1; parental ASC06-IgG1 antibody
B7: binds [1]; no binding [2]; no binding [3].

B8: ASC06-04-IgG1 (antibody, V domains shown)
VH: QVQLQQSGGGLVQPGGSLRLSCAASGFTFSSYAMSWVRQAPGKGLEWVSAISGSGGSTYYADSVKGRFTISRDNSKNTLYLQMNSLRAEDTAVYYCAKDSFYGRAKGVWGQGTLVTVSS
VL: QSALTQPASVSGSPGQSITISCTGTSSDVGAYNYVSWYQQQPGKAPKLMIYGVSNRPSGVSNRFSGSKSGNAASLTISGLQAEDEADYYCSSYTSSSTYVFGTGTKLTVLG
notes: Full length IgG1
B8: binds [1]; no binding [2]; no binding [3].

B9: ASC06-02-IgG1 (antibody, V domains shown)
VH: QVQLQQSGGGLVQPGGSLRLSCAASGFTFSSYAMSWVRQAPGKGLEWVSAISGSGGSTYYADSVKGRFTISRDNSKNTLYLQMNSLRAEDTAVYYCAKDSFFGRAKGSWGQGTLVTVSS
VL: QSALTQPASVSGSPGQSITISCTGTSSDVGAYNYVSWYQQQPGKAPKLMIYGVSNRPSGVSNRFSGSKSGNAASLTISGLQAEDEADYYCSSYTSSSTYVFGTGTKLTVLG
notes: Full length IgG1
B9: binds [1]; no binding [2]; no binding [3].
